From the supplement of paper PMC9170038

Tests used:
MS2 coat protein [1] = test: apparent KD of MS2 coat protein, switch ON state; designed switch direction (-1 OFF switch, 1 ON switch): -1; higher = weaker reporter binding; settings: FMN input: 0 or 200 uM; Eterna round: R93 (includes R88 designs)
In short: (§1)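 Apparent KD per design is the median of normalised cluster binding-curve fits. Designed RNA switches transcribed on-chip from Illumina sequencing clusters were titrated with SNAP-549-labelled MS2 coat protein in twofold steps from 0.7 or 1.5 nM to 3 µM, with 0.8–1.5 h down to 10–20 min per step. Buffer: 100 mM Tris-HCl pH 7.5, 80 mM KCl, 4 mM MgCl2, without or with constant ligand.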

MS2 coat protein [2] = test: apparent KD of MS2 coat protein, switch OFF state (with FMN for OFF switches, without FMN for ON switches); designed switch direction (-1 OFF switch, 1 ON switch): -1; higher = weaker reporter binding; settings: FMN input: 0 or 200 uM; Eterna round: R93 (includes R88 designs)
In short: as §1

Sequence | apparent KD of MS2 coat protein (MS2 coat protein [1]) [nM] | apparent KD of MS2 coat protein (MS2 coat protein [2]) [nM]
AGCUAGUCAGGAUAUACGAACAUGUAAAAAGACGUGAAGGGACAUGAGGAUCACCCAUGUAGAAGGGACUAGAA [74%, Web mod - With 2 less C's] | 46.7 | 91.3
AAAAGCAGAGGAUAUACAUAAUUAUGACGAAAGUCAUAAAAACAUGAGGAUCACCCAUGUAGAAGGCUGCAAAA [MOD of Meechl's MS2 Ex2 (MS2 riboswitches - Exlclusion 2)] | 24.9 | 28.1
AAAAAACAUGAGGAUCACCCAUGUGAGGAUAUGAUGCGAAUAAAGAAAGAAGAAAGCAUCAGAAGGCACACCAA [58%, Disencluded 3, 1] | 29.4 | 52
AAGGGACAUGAGGAUCACCCAUGUCAGGAUAUGCUAUGGAAAAUAAAAAUAAAACAUAGCAGAAGGGAUAAAAA [Denovo 3] | 20.2 | 45.4
UCGAUGUCAGGAUAUGUGUAAAGAAUAAAACAAAUAACAACACAGAAGGGACAUGAGGAUCACCCAUGUUACGA [May 42] | 42.2 | 86.2
AAUAAUGCAGGAUAUACUAAAGAAAUGAAAAGAAAUAAAGAACAUGAGGAUCACCCAUGUAGAAGGGCAAAUAA [Yakareb] | 52 | 29.3
GAUUAGUGAGGAUAUACAUGAGGAUCACCCAUGUGUAAAAAAAAACGCAAAAAAGAAUGUAGAAGGCACUAAAG [Mat - Exclusion 3 - Mayanna mod - D103] | 21.6 | 31.4
AAGCACAGAGGAUAUACAUGGGUAAAAAAAAAAAAAAAAAAACAUGAGGAUCACCCAUGUAGAAGGCUGUGCAA | 32.6 | 24.3
ACGAAGAGAGGAUAUACGAACAUGUCAAAAGACGUGAAGGGACAUGAGGAUCACCCAUGUAGAAGGCUCUUCGA [Mat - Exclusion 2 - JL mod - D10] | 45.4 | 167
AAAAAACAUGAGGAUCACCCAUGUGAGGAUAUGACGUAAAUAAAGAAAGAAGAAAUCGUCAGAAGGCACACCAA [55%, Disencluded 2, 5] | 29.8 | 43.1
AGUAUGCGAGGAUAUACAUGAGGAUCACCCAUGUGAGAGAUAAAAGUGAGAAAGACAAGUAGAAGGCGCGUACA [JL Lego Mod 23] | 54.8 | 354
UCCAGACAUGAGGAUCACCCAUGUCAGGAUAUCUACAGAACCUCAUGUAAAAAACUGUAGAGAAGGGAUAUGAA [Design 97: Pseudoknot G] | 16.7 | 16
GGUUGACGAGGAUAUACAUGAGGAUCACCCAUGUGAGAGAAAAAAGUGAGAAAGAAAAGUAGAAGGCGUUGACG [salish99-ex3-59] | 36.9 | 91.8
CUCUUGUGAGGAUAUGAAAGAAAAGAAGAGAAAGAAAAGAAUCAGAAGGCACAUGAGGAUCACCCAUGUAAGAA [EteRNA is fun!] | 27.4 | 106
GGGCCACAUGAGGAUCACCCAUGUAAGGAUAUGCUAGGGAUGGAAAAAAUUACGCAAAGCAGAAGGUACUAAAG [Janelle Amethyst 18 Mod 9 - Jieux - Exclusion 1] | 26.9 | 35.5
CUCUUGUGAGGAUAUGUAAGAAAAGAAAAGAAAGAAAAGAAACAGAAGGCACAUGAGGAUCACCCAUGUAAGAA [EteRNA is fun!] | 31.7 | 45.9
AAGAAGUCAGGAUAUGCUAAAGAAAUGAAAAGAAAGAAAGAACAUGAGGAUCACCCAUGUAGAAGGGACAAGAA [Dedumose I] | 47.1 | 38.3
AAAAAAGGAGGAUAUACGUACAUGUCAAAAGACGUGAAGGGACAUGAGGAUCACCCAUGUAGAAGGUCUAAAAA [JL Part Open 36] | 34.5 | 17.9
UAUGAGCGAGGAUAUGCUUGGGACGUCGUUCUUGCGGCGAGACAUGAGGAUCACCCAUGUAGAAGGCGCGAGCG [Harteesian Twist] | 17.4 | 16.7
AAGAAGUCAGGAUAUCGAAGACAGACGAAAAGUCUGUCAAACGAGAAGGGACAUGAGGAUCACCCAUGUAAAGA [Mat - Exaclusion 4 - Eli mod - D73] | 63.1 | 61
UCCUCACAUGAGGAUCACCCAUGUGAGGAUAUGUACAUCAGGAAAAAAAAACUGAUGUACAGAAGGCACAUGAA [Design 10: Super Stable G-C 3] | 13.3 | 16.5
AGUCAUACAGGAUAUACAUGAGGAUCACCCAUGUAUAUCCAAAAAAGGUGAUCCUCAUGUAGAAGGGUAUGACA [EX3 202: Super Stable 2] | 13.7 | 26.9
AAUGAUUUAGGAUAUACAUGAGGAUCACCCAUGUUCAAAUCGUGGGUCAGGUGAGAAGGUAGAAGGAAAUCACU [Soberior] | 113 | 185

Sequence | apparent KD of MS2 coat protein (MS2 coat protein [1]) [nM] | apparent KD of MS2 coat protein (MS2 coat protein [2]) [nM]
AAAAAUGGAGGAUAUACAUGAGGAUCACCCAUGUGUAACUAUACUAAGCACAAACCACGUAGAAGGCCAAAAAA [Gilly Gone Silly 11 - Jieux - Exclusion 3] | 51.7 | 78.3
AAUUAGGUAGGAUAUACAUGAGGAUCACCCAUGUGGAAAAAAAACUACGAAAAAGAAUGUAGAAGGACCUAAAA [Ex 3 Frozen] | 18.8 | 21.9
AACAAUACAGGAUAUACAUGAGGAUCACCCAUGUGAGAAUUAAGUGGCGUACCACAAGGUAGAAGGGUAAUGGA [Ruby 2] | 22.4 | 34.7
GGCACUGUAGGAUAUACAUGAACAAUUGGCAUCCUCAGUCCACAUGAGGAUCACCCAUGUAGAAGGAUAGAAAA [Besorees] | 131 | 91.1
AAAAGGUCAGGAUAUGCCCACCAGGAAAAAAAACCAGGUGGGCAGAAGGGACAUGAGGAUCACCCAUGUAAAAA [Excls4-I] | 59.6 | 107
AUAAUGUGAGGAUAUACAUGAGGAUCACCCAUGUAAUUAAAAAGGAGAGAAACAAUACGUAGAAGGUACAUUUA [JR_Exc003_Sub510] | 26.7 | 29
CUCUUGUAAGGAUAUAAAUGAAAAGAAGUGAAAGAAAAGAAUUAGAAGGUACAUGAGGAUCACCCAUGUUAGAA [EteRNA is fun!] | 22.1 | 18.5
AAAAAACAUGAGGAUCACCCAUGUGAGGAUAUCCUAAAGGGAAUAAAAUAACUCAAAAGGAGAAGGCGCAAAAA [Ex 1 May 31] | 60.2 | 46.3
GGGUAGUCAGGAUAUACAAACAUGUCAAAAGACGUGAAAAAACAUGAGGAUCACCCAUGUAGAAGGGACUACCC [Mat - Exclusion 2 - JL mod - D20] | 17.8 | 15
AAAAAACAUGAGGAUCACCCAUGUGAGGAUAUCGGAAAAGGAAAAAUAAAAAAGAAGACGAGAAGGCACACCAA [Mat - Exclusion 1 - Eli mod - D74] | 20.9 | 24.6
CAUAAGCAAGGAUAUACAUGAGGAUCACCCAUGUAGCUUUGCUUCGUGGGCACAACAUGUAGAAGGUGCGAAAA [Leceedon] | 15 | 13.9
AAGAACAGAGGAUAUACAUGAAAGAAAGAAAAGAAAAGAAAACAUGAGGAUCACCCAUGUAGAAGGCUGAAGAA [EteRNA is fun!] | 28.1 | 25.1
GAAAAGUGAGGAUAUACAGAUAAAAAAACGAAAAAAAAUCUGUAGAAGGCACAUGAGGAUCACCCAUGUAAAAA [Mat - Exclusion 4 - Mayanna - D106] | 31.7 | 29.8
AAGAACUCAGGAUAUGCUAAAGAAAUAAAAAUAAAUAAAGAACAUGAGGAUCACCCAUGUAGAAGGGAGAAGAA [Merkawre Sobekhotep VII] | 76.4 | 46.2
AACAUGUAAGGAUAUGAAAGAAAAGAAAAGAAAGAAAAGAAUCAGAAGGUACAUGAGGAUCACCCAUGUAAGAA [EteRNA is fun!] | 34.7 | 26.7
AAAUUGUCAGGAUAUCUUAGAACUGUCAAAGACAGGAGCUAAGAGAAGGGACAUGAGGAUCACCCAUGUAAAAC [May 90] | 64 | 88.5
AAGAAGUGAGGAUAUACAUGAGGAUCACCCAUGUAAAGAAGAAGAGGAGAGAAUAAAGGUAGAAGGCACAAGAA [JR_Exclusion3_Sub4] | 33.6 | 39.6
AGCUAGUCAGGAUAUACGAGAAUGUCAAAAGACGUGAAGGGACAUGAGGAUCACCCAUGUAGAAGGGACUAGCA [Diamond 23] | 39.3 | 208
AAGAAUGCAGGAUAUACAUGAAAGAAAGAAAAGAAAAGAAAACAUGAGGAUCACCCAUGUAGAAGGGCAUAGAA [EteRNA is fun!] | 26.8 | 44.1
CUCAUGUCAGGAUAUCAGUAGUAAAAAAAAAAAAUUACUACUGAGAAGGGACAUGAGGAUCACCCAUGUCCCUU [EX4 301: Super Stable 1] | 20.4 | 16.7
AAGAAAGCAGGAUAUACAAGAAAGAAAGAAAAGAAAAGAAAACAUGAGGAUCACCCAUGUAGAAGGGCUUAGAA [EteRNA is fun!] | 27.9 | 23.1
AAGAAGUCAGGAUAUGCCAAAGGUCACGAAAGUGACAAAGGGCAGAAGGGACAUGAGGAUCACCCAUGUAAAGA [Opal 2] | 47.2 | 56.7
